Measurements as given in publication PMC10126257, “Genome resequencing and transcriptome analysis reveal the molecular mechanism of albinism in Cordyceps militaris”.

T1: CmWC-3 (zinc-finger domain-containing protein, GATA-type) (Cordyceps militaris, UniProt G3J672 1-188)
T1 sequence: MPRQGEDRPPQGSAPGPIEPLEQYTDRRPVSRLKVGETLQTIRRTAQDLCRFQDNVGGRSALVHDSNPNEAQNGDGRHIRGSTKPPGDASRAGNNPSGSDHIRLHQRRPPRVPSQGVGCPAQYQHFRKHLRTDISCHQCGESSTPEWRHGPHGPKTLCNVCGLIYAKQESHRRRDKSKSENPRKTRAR

T2: CmWC-1 (white collar-1) (Cordyceps militaris, UniProt G3J3J5 1-963)
T2 sequence: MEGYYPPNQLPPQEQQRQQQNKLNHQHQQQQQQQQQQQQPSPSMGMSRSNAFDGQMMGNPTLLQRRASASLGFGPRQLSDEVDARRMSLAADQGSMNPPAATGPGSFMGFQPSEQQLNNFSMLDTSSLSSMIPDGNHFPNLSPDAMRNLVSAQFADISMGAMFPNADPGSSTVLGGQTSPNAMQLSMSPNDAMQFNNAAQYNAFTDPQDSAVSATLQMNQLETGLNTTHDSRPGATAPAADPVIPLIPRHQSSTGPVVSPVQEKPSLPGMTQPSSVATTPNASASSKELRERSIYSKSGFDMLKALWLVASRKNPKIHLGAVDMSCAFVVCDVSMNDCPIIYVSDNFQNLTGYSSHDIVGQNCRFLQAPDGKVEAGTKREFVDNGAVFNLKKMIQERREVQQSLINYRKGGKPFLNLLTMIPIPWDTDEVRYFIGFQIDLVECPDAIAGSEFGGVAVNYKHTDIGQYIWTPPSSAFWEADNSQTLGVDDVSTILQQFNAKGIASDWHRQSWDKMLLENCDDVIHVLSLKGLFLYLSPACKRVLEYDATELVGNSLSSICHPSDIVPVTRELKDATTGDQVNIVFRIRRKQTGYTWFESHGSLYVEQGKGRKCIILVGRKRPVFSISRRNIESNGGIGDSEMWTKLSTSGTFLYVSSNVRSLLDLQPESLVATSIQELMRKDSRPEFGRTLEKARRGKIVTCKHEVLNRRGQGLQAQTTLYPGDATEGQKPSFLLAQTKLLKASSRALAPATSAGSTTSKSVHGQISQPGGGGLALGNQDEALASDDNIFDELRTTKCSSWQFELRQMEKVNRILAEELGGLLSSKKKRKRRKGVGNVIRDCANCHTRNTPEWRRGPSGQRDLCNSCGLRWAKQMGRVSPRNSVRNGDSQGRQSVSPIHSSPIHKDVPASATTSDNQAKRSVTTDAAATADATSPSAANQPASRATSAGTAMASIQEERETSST

B1: CmPKS promoter P1 probe (dsDNA)
DNA 1: TCATATGATTGTTGATAAATATGTTTTCCCAGTGA
DNA 2: TCACTGGGAAAACATATTTATCAACAATCATATGA
B2: CmPKS promoter P2 probe (dsDNA)
DNA 1: CGCAGCTGAGGGTATTGATAGCCGTGATCGAACCC
DNA 2: GGGTTCGATCACGGCTATCAATACCCTCAGCTGCG

Experiments:
[1] = molecular target: T1, CmWC-3 (zinc-finger domain-containing …); assay: EMSA; LightShift EMSA Kit (Thermo 20148); cold competitor 50x; proteins recovered in 1x PBS; binding buffer, salt, pH and temperature not stated; settings: protein: recombinant; tags: GST (pGEX-6P-1); label: biotin on both strands (5'); blunt
CmWC-1 (white collar-1) = molecular target: T2, CmWC-1 (white collar-1); assay: as above; settings: protein: recombinant; tags: His (pCOLD I); label: biotin on both strands (5'); blunt

Row | Binder | binding result [1] | binding result (CmWC-1 (white collar-1))
1 | B1 | binds | no binding
2 | B2 | binds | no binding
